How the values were obtained:
[1] = system: human urinary bladder cancer cell line (T-24); assay: Cytotoxicity assay, cell titer glow luminescence, 72 h; format: cell-based
Protocol: (§1) T-24 Cell line were cultured in McCoy's 5a Medium Modified supplemented with 10% FBS and the PA-1 Cell line was cultured in EMEM Media supplemented with 10% FBS. The assay was performed by plating 5,000 cells/well and incubated at 37° C. overnight. […] Each concentration was added in triplicate and media-only wells used as a control. After incubation for 72 h cell titer glow (Promega) reagent (50 μL) was added to each well and the plates shaken for 5 mins and the luminescence was recorded. Percent viability was determined by dividing luminescence of the treated well by the non-treated well and multiplying by 100. Data was analysed using non-linear regression with a logarithmic scale.
(§2) 5,000 cells/well were plated and incubated at 37° C. overnight. Conjugates/vehicle control dilutions were made in respective media and added to cells. Volume added: 50 uL to each well. Starting treatment concentration was 1 uM for Conjugate of formula 16 and 18, and control SEQ ID NO: 5 alone and 10% for vehicle control (1×PBS with 20% DMA) and then diluted 10-fold down for a total of 11 treatment dilutions. Each concentration was analysed in triplicates. Media-only wells was used as a control to calculate percent viability. Cell titer glow reagent (volume: 50 uL) was added to each well, the plate was shaken for 5 mins and the luminescence was recorded. Drug Treatment Time: 72 hours. Percent viability was calculated by dividing the luminescence signal obtained for each treated well by the untreated well (media-only control) and multiplying by 100.

[2] = system: ovarian cancer cell line (PA-1); assay: as above; format: cell-based
Protocol: as §1, §2

[3] = Glycan binding study, O-Glycan array containing 94 glycans; settings: T-antigen and its extended core structures
A549 Lungs = assay: Cytotoxic effect by MTT assay, 48 h; settings: for Percent cytotoxicity wrt control: 48 h
Protocol: Cells were treated with Test Items at various concentrations (0.0001 μM-10 μM) for 48 h. The cells corresponding to Positive Control group were treated with Doxorubicin at a concentration ranging from 0.1 μM-100 μM. The Untreated cells were used as Control. After 48 h of incubation, the effect of Test Items on cytotoxicity of cells was determined by MTT assay, the plates were taken out and 20 μl of 5 mg/m1 of MTT 3-(4,5-dimethythiazol-2-yl)-2,5-diphenyl tetrazolium bromide solution was added to all the wells. Cells were incubated for 3 h at 37° C. The supernatant was aspirated. 150 μl of DMSO was added to each well to dissolve formazan crystals. The absorbance of each well was then read at 540 nm using Synergy HT micro plate reader.
The % Cytotoxicity was calculated using the formula:
Where, X=Absorbance of cells treated with Test Item; R=Absorbance of Control cells (Untreated cells maintained in growth medium only).
Selectivity Index was calculated using the formula:
SI=IC50 in Normal cell/IC50 in cancer cell.
Activity scores of the Selective Index values were categorized as: • Not selective (SI value ≤1) • Moderately selective (1<SI value <5) • Selective (SI value ≥5)

B1: SEQ ID NO: 2: recombinant variant of the S. rolfsii lectin amino acid sequence (reported as Rec-2 in WO2010/095143) (protein)
chain: TYKITVRVYQTNPDAFFHPVEKTVWKYANGGTWTITDDQHVLTMGGSGTSGTLRFHADNGESFTATFGVHNYKRWCDIVTNLAADETGMVINQQYYSQKNREEARERQLSNYQVKNAKGRNFQIVYTEAEGNDLHANLIIG
IC50 values, T-24 cell line ([1]; 72 h): 10.4 µg/mL | cytotoxic effects below 10 μM concentration ([1]; below 10 μM): does not exhibit major cytotoxic effects | IC50 values, PA-1 Cell line ([2]; 72 h): 20.3 µg/mL | cytotoxic effects below 10 μM concentration ([2]; below 10 μM): does not exhibit major cytotoxic effects | binding profile to O-glycans (in words) [3]: strong and broad binding profile | Percent cytotoxicity wrt control (A549 Lungs; A549, 0.0001 μM): −0.5% | Percent cytotoxicity wrt control (A549 Lungs; A549, 0.001 μM): −15.5% | Percent cytotoxicity wrt control (A549 Lungs; A549, 0.01 μM): −1.1% | Percent cytotoxicity wrt control (A549 Lungs; A549, 0.1 μM): −6.9% | Percent cytotoxicity wrt control (A549 Lungs; A549, 1 μM): 31.9% | Percent cytotoxicity wrt control (A549 Lungs; A549, 10 μM): 48.2% | IC50 (A549 Lungs; read-out: IC50 Values, A549 Lungs, after 48 h of treatment): ≥ 10 µM
